From the supplement of paper PMC12042874
± gives the uncertainty stated by the source.

Experiment: amyloid nucleation score (Sup35N fusion, yeast selection) (log enrichment); library NNK1; higher = more nucleation; inactive = no reads after selection
Outline: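 Using DiMSum, nucleation scores were taken as the log enrichment of output over input reads, centred on the mode score of non-aggregating sequences. The input and output reads came from Illumina sequencing of plasmid inserts, with sequences under 100 input reads excluded. The yeast were psi-negative, expressed Sup35N fused to peptides of 20 random codons, were induced with 100 μM copper sulfate for 24 hours, and were grown 7 days at 30°C on medium lacking adenine and uracil.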

Substance | amyloid nucleation score
YIDRRLRLRVG | inactive
SMIDFIRSFLYHSY | -1.1 ± 0.5
LDSCPAL | 0.47 ± 0.57
DAVSYNSPGGELYDLFNLTA | -0.994 ± 0.97
SDAITRVIRHMNPFCLTALL | -0.928 ± 0.95
SLYTKLAVPLGKWRIGYRLT | 0.46 ± 0.58
LSTNDTSR | -0.028 ± 0.53
VFAFA | 0.126 ± 0.48
NVVHRLLWQSSVTSYIAVSY | 1.86 ± 0.14
NLSSYGR | 0.798 ± 0.23
YYETLLNKDILDMWEYR | -0.393 ± 0.55
SGNGRRWSVLTDLAMLLLWL | -0.316 ± 0.41
FNDQVQTWWLSYFEAPRYFK | -1.29 ± 2.4
IVLFSPFTW | -0.062 ± 0.31
ISPRDHESLTNFHVRLCHMR | 0.368 ± 0.57
LYAHYRADVHEEKSLYYVIA | 0.101 ± 0.23
TDGIGYLGTWMWLWRGDGVR | 1.78 ± 0.53
YRVVYRKNVDCTMYQFMSRR | 0.539 ± 0.31
CHLNFMCWPTAQDENMPIFG | -0.09 ± 0.31
NQMGRRQRVLRSSDSRPTVL | -0.114 ± 0.74
TVRGGLY | -1.04 ± 0.62
ADACVRFLRGYYFNGFPMRW | 1.03 ± 0.9

Substance | amyloid nucleation score
WCQKYNFRCSVLDLTFSLLW | 6.71 ± 0.069
SIYSRGSVLANPCSFYAEVR | inactive
TLQLICYY | 3.29 ± 0.14
ICELIWGGRRSNGINGSTSG | 0.741 ± 0.23
AVIAMYRVNAPSC | 1.15 ± 0.41
FSTMAYTWVLYTSWACAGAS | 0.075 ± 0.69
GVTWLSEISV | 0.885 ± 0.73
TTKAVRCYRNIMCSTILGRS | -0.015 ± 0.31
FVCYSLNSSSFMIPYWILLK | -0.293 ± 0.46
QWCNIVGSMIVDITQELML | 1.75 ± 0.25
MRFMPVVWCRRMQESLGHST | -0.026 ± 0.37
LPVLLSFVSYGS | -0.162 ± 0.34
QGKLFFLVNLYSKPQNSHYG | 4.13 ± 0.069
LGTMSVYRRPRSMMGCRDQG | 0.173 ± 0.26
LCDFLNAYEINGKFSCGGTR | 0.084 ± 0.38
QRRALHTL | -0.069 ± 0.46
YLQETLYNKWDWFGNHQGLM | 0.107 ± 0.26
SSAELFREPFQVNRCNCEGW | 0.774 ± 0.47
GHDVWKANSLTRVKLREYYG | 0.546 ± 0.35
TVLPF | 1.6 ± 0.55
GRAWCFY | 0.15 ± 0.33
PLAHLSRLEESYWPSQTHPS | 0.091 ± 0.54

Substance | amyloid nucleation score
AWMSRIVNNPGSNTFSRQWL | -0.284 ± 0.71
GWLLYDSPSRFTYC | -0.531 ± 0.37
LYIQSSNYRDMVYPYSVVPL | 1.95 ± 0.28
NSRMMLGVLSSVAYGVRMVW | 0.651 ± 0.56
GVRVCSMPFAALLAFLLYFS | -1.09 ± 0.76
DPVTDVFG | -0.541 ± 0.36
TNRKIQSLPTVCVCIRGSSG | 2.95 ± 0.11
DAILLHYSNDMLYSYYRRVG | -0.937 ± 0.65
VNSVCSGGALMPGFKCAQLK | -0.169 ± 0.81
QSRSL | 0.703 ± 0.66
ARLSL | 0.157 ± 0.64
MRGERVYSLRNNSHQ | -0.078 ± 0.33
GYRGLYY | 1.38 ± 0.6
RDSNVGIFHNSR | -1.35 ± 0.87
NNKKNY | -0.505 ± 0.27
MTAPHFLYLKRPHRPTRPDL | 0.898 ± 0.58
GGFFKRL | 0.161 ± 0.36
QVVRIYQVQGLWIMVHR | 1.96 ± 0.28
GSFFTKDSDTP | 0.373 ± 0.46
VWLMFLSWLV | -0.639 ± 0.78
HLGNSSNQIILHQCI | 4.67 ± 0.059
FNMPDKQILKLESLWHGMVA | inactive

Substance | amyloid nucleation score
MKDYHSDHIKIVQANHTEKV | -1.32 ± 2.4
CSFLRFQIVMCCRLLDRVLC | 1.72 ± 0.63
SNNYLLCGIDGEVL | 1.07 ± 0.66
NTESLEFRSKKGGNCRAGLS | 0.495 ± 0.97
VHRRRIRQSAWVRGAVSTFR | -0.011 ± 0.4
TYEPKGRLPCWCSAQSMGCL | -0.096 ± 0.34
TNIFMSFKFLISSLRCFPER | 4.68 ± 0.12
NNFGFET | 0.671 ± 0.31
RIVKSGGFNR | -0.089 ± 0.39
GGTCVRQFMVLDTHSHADEC | 0.66 ± 0.56
SILKIALTH | -1.71 ± 1.4
DVVLDYSRQTYKDPASRMYA | 1.1 ± 0.71
DTPWWGSGALVFKLCACSAY | -0.341 ± 0.59
SRVNDQCVLSSWR | 0.47 ± 0.5
YCMYMVWLKGK | -0.747 ± 0.37
LMLPMESAPKRLGEGVGPSR | 0.233 ± 0.47
YAAVLLNFT | 1.09 ± 0.28
HGCSSVILVGMRAEEIFLYY | 2.71 ± 0.14
YSINTCCQLVIIDPGSSYEM | 6.634 ± 0.047
VKRLTRAVFCSFKSRVARSS | 0.238 ± 0.58
FSHLFHQY | 2.13 ± 0.57
